Measurements reported in patent US20250296992A1 (Genmab, published 2025).

What was measured:
[1] = biological target: T1, human SLITRK1 (human, UniProt Q96PX8 18-622, limits assumed); assay: BLI, antigen on anti-his tips
T1 construct: The method text describes only the SLITRK6 ECD-his construct; also called Hu SLITRK1
T1 sequence (looked up): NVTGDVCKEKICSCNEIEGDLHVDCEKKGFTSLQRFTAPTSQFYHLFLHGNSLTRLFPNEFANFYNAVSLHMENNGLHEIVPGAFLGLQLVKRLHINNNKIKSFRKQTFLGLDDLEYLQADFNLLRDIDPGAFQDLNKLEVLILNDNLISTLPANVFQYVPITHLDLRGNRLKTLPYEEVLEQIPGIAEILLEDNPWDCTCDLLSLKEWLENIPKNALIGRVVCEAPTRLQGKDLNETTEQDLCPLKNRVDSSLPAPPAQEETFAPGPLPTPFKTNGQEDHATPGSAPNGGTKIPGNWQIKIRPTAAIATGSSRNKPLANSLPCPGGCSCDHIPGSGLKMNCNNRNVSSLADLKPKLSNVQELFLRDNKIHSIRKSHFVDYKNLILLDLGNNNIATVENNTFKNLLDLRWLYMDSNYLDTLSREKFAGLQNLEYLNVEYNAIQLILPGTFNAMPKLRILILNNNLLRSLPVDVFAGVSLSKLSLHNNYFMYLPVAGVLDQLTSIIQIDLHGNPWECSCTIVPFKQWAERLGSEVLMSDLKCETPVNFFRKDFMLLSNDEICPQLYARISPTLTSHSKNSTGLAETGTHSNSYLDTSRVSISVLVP
Description: (§1) Binding kinetic of antibody-antigen was characterized by the bio-layer interferometry (BLI). 100 nM of SLITRK6′ extracellular domain linked to his tag was immobilized on anti-his biosensor tips (Fortebio). The sensors were rinsed with the buffer (50 mM Tris-AcOH, pH 6 or 7.5, 0.05% v/v surfactant P20) for 10 min to remove the unbound molecules, then dipped in the antibody solutions at different concentrations for 180 seconds and interspersed by a rinsing step in the buffer solution for 300 seconds. Binding affinity was calculated using ForteBio Data Acquisition 6.3 software (ForteBio) and was derived by fitting the kinetic data to a 1:1 Langmuir binding model utilizing global fitting algorithms. The dissociation or association equilibrium constant KD was calculated from the binding rate constants as KD=koff/kₒₙ (where koff and kₒₙ represent the dissociation kinetic constant and the association kinetic constant, respectively).

[2] = biological target: T2, human SLITRK4 (human, UniProt Q8IW52 19-618, limits assumed); assay: BLI, antigen on anti-his tips
T2 construct: The method text describes only the SLITRK6 ECD-his construct; also called Hu SLITRK4
T2 sequence (looked up): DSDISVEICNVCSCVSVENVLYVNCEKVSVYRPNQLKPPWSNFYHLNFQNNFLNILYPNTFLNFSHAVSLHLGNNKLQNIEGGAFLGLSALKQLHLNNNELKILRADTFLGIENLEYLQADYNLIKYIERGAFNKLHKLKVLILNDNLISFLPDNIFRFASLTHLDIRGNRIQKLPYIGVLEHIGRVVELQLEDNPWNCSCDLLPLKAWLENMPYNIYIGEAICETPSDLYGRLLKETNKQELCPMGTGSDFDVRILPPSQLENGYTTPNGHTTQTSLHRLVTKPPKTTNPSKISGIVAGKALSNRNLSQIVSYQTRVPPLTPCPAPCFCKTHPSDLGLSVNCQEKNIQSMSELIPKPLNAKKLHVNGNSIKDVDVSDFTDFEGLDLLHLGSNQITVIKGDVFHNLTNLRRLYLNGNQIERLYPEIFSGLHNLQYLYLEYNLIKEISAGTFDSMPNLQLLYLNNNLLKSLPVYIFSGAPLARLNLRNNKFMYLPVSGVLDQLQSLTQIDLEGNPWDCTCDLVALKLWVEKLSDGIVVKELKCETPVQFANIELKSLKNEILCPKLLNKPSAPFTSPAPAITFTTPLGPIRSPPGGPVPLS
Description: as §1

[3] = biological target: T3, rat SLITRK6 (rat, UniProt D3ZP44 27-607); assay: BLI, antigen on anti-his tips
T3 construct: extracellular domain; not shown: his tag

[4] = biological target: T4, human SLITRK6 on cells (human, UniProt Q9H5Y7 27-841); assay: flow cytometry on RT4 cells, PE-conjugated anti-human Fc
T4 construct: whole, on cells
Description: (§2) Specifically, cells were incubated with 50 μL of mAbs or ADCs in series dilutions in PBS containing 1% BSA at 4° C. for 30 min. The cells were washed twice with PBS containing 1% BSA, stained with PE-conjugated anti human Fc in PBS containing 1% BSA and then incubated at 4° C. for 20 min. After that the cells were washed twice with PBS and analyzed by a flow cytometer.

[5] = biological target: T4, human SLITRK6 on cells; assay: as above; remark: listed apart in the source
Description: (§3) The binding activity of mAbs and ADCs was evaluated by flow cytometer (Beckman, Cytoflex). Specifically, cells were incubated with 50 μL of mAbs or ADCs in series dilutions in PBS containing 1% BSA at 4° C. for 30 min. The cells were washed twice with PBS containing 1% BSA, stained with PE-conjugated anti human Fc in PBS containing 1% BSA and then incubated at 4° C. for 20 min. After that the cells were washed twice with PBS and analyzed by a flow cytometer.

[6] = biological target: T4, human SLITRK6 on cells; assay: flow cytometry on SW780 cells, PE-conjugated anti-human Fc
Description: as §2

[7] = biological target: T4, human SLITRK6 on cells; assay: as above; remark: listed apart in the source
Description: as §3

[8] = biological target: T4, human SLITRK6 on cells; assay: flow cytometry on CHP-212 cells, PE-conjugated anti-human Fc
Description: as §2

[9] = biological target: T4, human SLITRK6 on cells; assay: flow cytometry on KYSE-30 cells, PE-conjugated anti-human Fc
Description: as §2

[10] = biological target: T4, human SLITRK6 on cells; assay: flow cytometry on RT112/84 cells, PE-conjugated anti-human Fc
Description: as §2

[11] = biological target: T4, human SLITRK6 on cells; assay: flow cytometry on KYSE-410 cells, PE-conjugated anti-human Fc
Description: as §2

[12] = biological target: T5, mouse SLITRK6 (mouse, UniProt Q8C110 23-609); assay: BLI; antigen-his on anti-his tips, antibody or ADC as analyte; 1:1 fit
T5 construct: extracellular domain; also called Mu SLITRK6; not shown: his tag

[13] = biological target: T6, human SLITRK6 extracellular domain linked to his tag (human, UniProt Q9H5Y7 27-608); assay: as above
T6 construct: extracellular domain; also called huSLITRK6; Hu SLITRK6; not shown: his tag

[14] = biological target: T7, cynomolgus monkey SLITRK6 extracellular domain linked to his tag (cynomolgus monkey, UniProt G7PVK4 27-608); assay: as above
T7 construct: extracellular domain; also called cynoSLITRK6; Cyno SLITRK6; not shown: his tag

[15] = biological target: T4, human SLITRK6 on cells; assay: flow cytometry on 293F-huSLITRK6 cells, PE-conjugated anti-human Fc
Description: as §2

T5 sequence (Q8C110 23-609): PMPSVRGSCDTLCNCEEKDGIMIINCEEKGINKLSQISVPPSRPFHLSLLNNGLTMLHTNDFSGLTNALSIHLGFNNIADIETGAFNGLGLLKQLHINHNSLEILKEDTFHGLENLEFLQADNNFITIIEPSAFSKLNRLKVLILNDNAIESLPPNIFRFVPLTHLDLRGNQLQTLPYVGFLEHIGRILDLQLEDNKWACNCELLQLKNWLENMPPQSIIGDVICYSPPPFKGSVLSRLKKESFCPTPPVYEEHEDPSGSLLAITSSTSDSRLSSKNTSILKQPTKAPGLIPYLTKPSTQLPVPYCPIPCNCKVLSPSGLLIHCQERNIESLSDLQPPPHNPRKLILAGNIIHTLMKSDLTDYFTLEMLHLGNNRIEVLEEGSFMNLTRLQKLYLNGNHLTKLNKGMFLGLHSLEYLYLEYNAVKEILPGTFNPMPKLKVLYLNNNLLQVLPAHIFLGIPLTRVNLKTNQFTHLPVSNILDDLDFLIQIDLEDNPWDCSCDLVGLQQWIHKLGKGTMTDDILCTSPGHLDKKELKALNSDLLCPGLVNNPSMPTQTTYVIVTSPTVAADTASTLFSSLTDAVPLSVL

B1: hu1H2-03 with a LALA mutation (hu1H2-03-LALA) (antibody, V domains shown)
VH: EVQLVESGGGLVQPGGSLRLSCAASGFTFSDYGLHWVRQAPGKGLEWVSYISSGSSTVYFADTLKGRFTISRDNAKNSLYLQMNSLRAEDTAVYYCTRGTWYFDVWGRGTLVTVSS
VL: DIQMTQSPSSLSASVGDRVTITCRTSENIHSYLAWYQQKPGKSPQLLVYNAKTLADGVPSRFSGSGSGTDYTLTISSLQPEDFGTFYCQHFWTTSRTFGGGTKVEIK
- binding result [1]: no binding
- binding result [2]: no binding
- binding result [3]: no binding
- EC50 (read off the curve) [4]: ~0.2 nM
- EC50 (read off the curve) [5]: ~0.3 nM
- EC50 (read off the curve) [6]: ~0.3 nM
- EC50 (read off the curve) [7]: ~0.3 nM
- EC50 (read off the curve) [8]: ~0.2 nM
- EC50 (read off the curve) [9]: ~0.2 nM
- EC50 (read off the curve) [10]: ~0.2 nM
- EC50 (read off the curve) [11]: ~0.2 nM
- Kd [12]: 0.59 nM
- Kd [13]: 0.14 nM
- Kd [14]: 0.25 nM
- EC50 (read off the curve) [15]: ~0.9 nM

B2: hu1H2-03-LD038 (antibody, V domains shown)
VH: B1 VH
VL: B1 VL
modifications: drug-linker LD038 conjugated to the antibody; positions not given
notes: also called hu1H2-03-LALA-LD038; hu1H2-03-LD038 (8)
- binding result [1]: no binding
- binding result [2]: no binding
- binding result [3]: no binding
- EC50 (read off the curve) [4]: ~0.3 nM
- EC50 (read off the curve) [6]: ~0.4 nM
- EC50 (read off the curve) [8]: ~0.2 nM
- EC50 (read off the curve) [9]: ~0.3 nM
- EC50 (read off the curve) [10]: ~0.2 nM
- EC50 (read off the curve) [11]: ~0.2 nM
- Kd [12]: 0.61 nM
- Kd [13]: 0.08 nM
- Kd [14]: 0.21 nM
- EC50 (read off the curve) [15]: ~1 nM
